In patent US7018791B1, “Binding complexes” (Institute of Cancer Research: Royal Cancer Hospital, priority 1997, dated 2006):
Each block holds one molecule with its values, some of them ahead of it. * marks the point of attachment. Biotin = O=C1N[C@H]2[C@H](CS[C@H]2CCCCC(=O)*)N1

How the values were obtained:
[1] = tested on: T1, CCT; assay: Interaction of soluble biotinylated peptides with CCT (native PAGE, streptavidin/Neutravidin-HRP blot); format: binding, mouse
T1 construct: Take 20S mouse testis sucrose gradient fractions enriched in CCT; from tissue; host or cells: mouse testis, 20S sucrose gradient fractions

[2] = target: T2, mouse CCTγ subunit (mouse, UniProt P80318 1-545); assay: superimposable bands, 6% non-denaturing PAGE Western blot of sucrose fractions 13 and 14; footnote: not very clear in mouse testis but substantiated in Human 293 cells
T2 construct: Endogenous subunit in mouse testis sucrose fractions
T2 sequence (looked up): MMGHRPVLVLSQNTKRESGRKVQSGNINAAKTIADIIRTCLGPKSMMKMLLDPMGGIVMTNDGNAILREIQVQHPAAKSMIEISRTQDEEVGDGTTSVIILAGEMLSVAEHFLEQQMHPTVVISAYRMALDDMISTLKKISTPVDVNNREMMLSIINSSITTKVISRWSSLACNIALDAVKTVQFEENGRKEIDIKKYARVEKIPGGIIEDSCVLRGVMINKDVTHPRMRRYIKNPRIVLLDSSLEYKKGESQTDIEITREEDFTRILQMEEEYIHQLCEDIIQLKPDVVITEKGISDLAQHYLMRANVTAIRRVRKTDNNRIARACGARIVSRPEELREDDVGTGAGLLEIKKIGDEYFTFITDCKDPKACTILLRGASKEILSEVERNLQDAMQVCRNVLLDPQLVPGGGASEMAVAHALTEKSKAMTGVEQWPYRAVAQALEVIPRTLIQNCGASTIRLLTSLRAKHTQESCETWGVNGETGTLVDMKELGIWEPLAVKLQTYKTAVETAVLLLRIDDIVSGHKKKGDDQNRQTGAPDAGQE

[3] = tested on: CCT; assay: In vitro translation in rabbit reticulocyte lysate, interaction with CCT on native PAGE; format: binding; details: kinetics different from folding substrates actin or tubulins
Description: Time courses of interactions of cyclins with CCT were analysed on 6% native polyacrylamide gels (Liou & Willison,EMBO J. 16, 4311–4316, 1997). At the indicated times, 5 μl aliquots of the lysate reactions were added to 7 μl of […] EDTA (ph 8.0) and 4 μl of 4× gel loading buffer and placed on ice. The lanes 1–6 show CCT a at t=0, 5, 10, 20, 30, 60 minutes. Lanes 7–12 show pBSK CY1 1 (mouse D1) at t=0, 5, 10, 20, 30, 60 minutes.
Upon in vitro translation of actin mRNA in rabbit reticulocyte lysate, several truncated forms of ^35S-actin are captured by and accumulate on CCT. This is also the case for α-tubulin (Liou, K. F., et al, Biological Chem. Hoppe-Seler 379, 311–319, 1998). […] Thus, the actin is fragments are not ribosome released nascent chains, but are the consequence of initiation of translation at internal methionine residues in actin, and a comparison of the experimentally determined molecular weights of the truncated forms with the sequential occurrence of the methionines in mouse β-actin supports this interpretation. […] Therefore, no fragments smaller than 29 kDa are produced by internal initiation in the IVT reaction.
The present inventors made fusion proteins which linked β-Actin Site I (residues 31–70) or Site II residues 178–262; 6 of the peptides (Table 2) are located in this segment) containing fragments to the C-terminus of Ha-Ras (residues 1–166). […]

[4] = target: T3, CCT (chaperonin containing TCP-1) complex from mouse testis (mouse, UniProt P11983 1-556; P80314 2-535; P80318 1-545; P80315 1-539; P80316 2-541; P80317 …); assay: biotinylated peptide with CCT in solution, 6% native PAGE, blot probed with streptavidin/Neutravidin-HRP
T3 construct: Hetero-oligomer: eight different subunits in each of two rings (double toroid, about 920 kDa), enriched from mouse testis 20S sucrose gradient fractions; Testis also holds CCTζ2; also called CCT complex; intact CCT

[5] = target: T4, human CCTγ subunit (human 293 cells) (human, UniProt P49368 1-545); assay: superimposable bands, non-denaturing PAGE Western blot of sucrose fractions 13 and 14 of human 293 cells
T4 sequence (looked up): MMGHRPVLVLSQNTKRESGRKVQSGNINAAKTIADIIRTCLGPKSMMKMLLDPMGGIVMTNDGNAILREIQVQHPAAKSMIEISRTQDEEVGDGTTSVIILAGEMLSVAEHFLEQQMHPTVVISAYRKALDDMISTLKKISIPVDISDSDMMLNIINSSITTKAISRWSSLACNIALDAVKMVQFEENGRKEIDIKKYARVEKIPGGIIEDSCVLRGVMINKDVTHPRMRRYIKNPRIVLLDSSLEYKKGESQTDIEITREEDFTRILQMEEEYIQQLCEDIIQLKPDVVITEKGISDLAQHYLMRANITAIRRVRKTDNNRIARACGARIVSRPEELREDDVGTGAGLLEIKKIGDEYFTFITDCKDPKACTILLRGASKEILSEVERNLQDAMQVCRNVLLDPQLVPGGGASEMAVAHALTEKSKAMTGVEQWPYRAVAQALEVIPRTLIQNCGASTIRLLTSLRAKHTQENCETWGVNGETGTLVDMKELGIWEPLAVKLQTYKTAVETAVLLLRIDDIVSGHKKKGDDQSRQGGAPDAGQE

[6] = target: T5, mouse CCTα subunit (wildtype) (mouse, UniProt P11983 1-556); assay: superimposable bands, 6% non-denaturing PAGE Western blot of mouse testis sucrose fractions 13 and 14, subunit-specific antibodies
T5 construct: in the 23C experiment translated in vitro and incorporated into rabbit CCT; also called CCTa; CCTA

binding result [2]: binds
B1: mouse CCTβ subunit (other, UniProt P80314 2-535, looked up)
chain: ASLSLAPVNIFKAGADEERAETARLSSFIGAIAIGDLVKSTLGPKGMDKILLSSGRDAALMVTNDGATILKNIGVDNPAAKVLVDMSRVQDDEVGDGTTSVTVLAAELLREAESLIAKKIHPQTIISGWREATKAAREALLSSAVDHGSDEARFWQDLMNIAGTTLSSKLLTHHKDHFTKLAVEAVLRLKGSGNLEAIHVIKKLGGSLADSYLDEGFLLDKKIGVNQPKRIENAKILIANTGMDTDKIKIFGSRVRVDSTAKVAEIEHAEKEKMKEKVERILKHGINCFINRQLIYNYPEQLFGAAGVMAIEHADFAGVERLALVTGGEIASTFDHPELVKLGSCKLIEEVMIGEDKLIHFSGVALGEACTIVLRGATQQILDEAERSLHDALCVLAQTVKDPRTVYGGGCSEMLMAHAVTQLANRTPGKEAVAMESFAKALRMLPTIIADNAGYDSADLVAQLRAAHSEGHITAGLDMKEGTIGDMAVLGITESFQVKRQVLLSAAEAAEVILRVDNIIKAAPRKRVPDHHPC
notes: Endogenous subunit in mouse testis sucrose fractions

binding result [5]: binds
B4: human CCTβ subunit (human 293 cells) (other, UniProt P78371 2-535, looked up)
chain: ASLSLAPVNIFKAGADEERAETARLTSFIGAIAIGDLVKSTLGPKGMDKILLSSGRDASLMVTNDGATILKNIGVDNPAAKVLVDMSRVQDDEVGDGTTSVTVLAAELLREAESLIAKKIHPQTIIAGWREATKAAREALLSSAVDHGSDEVKFRQDLMNIAGTTLSSKLLTHHKDHFTKLAVEAVLRLKGSGNLEAIHIIKKLGGSLADSYLDEGFLLDKKIGVNQPKRIENAKILIANTGMDTDKIKIFGSRVRVDSTAKVAEIEHAEKEKMKEKVERILKHGINCFINRQLIYNYPEQLFGAAGVMAIEHADFAGVERLALVTGGEIASTFDHPELVKLGSCKLIEEVMIGEDKLIHFSGVALGEACTIVLRGATQQILDEAERSLHDALCVLAQTVKDSRTVYGGGCSEMLMAHAVTQLANRTPGKEAVAMESYAKALRMLPTIIADNAGYDSADLVAQLRAAHSEGNTTAGLDMREGTIGDMAILGITESFQVKRQVLLSAAEAAEVILRVDNIIKAAPRKRVPDHHPC

binding result [6]: binds
B6: mouse CCTη subunit (other, UniProt P80313 1-544, looked up)
chain: MMPTPVILLKEGTDSSQGIPQLVSNISACQVIAEAVRTTLGPRGMDKLIVDGRGKATISNDGATILKLLDVVHPAAKTLVDIAKSQDAEVGDGTTSVTLLAAEFLKQVKPYVEEGLHPQIIIRAFRTATQLAVNKIKEIAVTVKKQDKVEQRKMLEKCAMTALSSKLISQQKVFFAKMVVDAVMMLDELLQLKMIGIKKVQGGALEESQLVAGVAFKKTFSYAGFEMQPKKYKNPKIALLNVELELKAEKDNAEIRVHTVEDYQAIVDAEWNILYDKLEKIHQSGAKVILSKLPIGDVATQYFADRDMFCAGRVPEEDLKRTMMACGGSIQTSVNALVPDVLGHCQVFEETQIGGERYNFFTGCPKAKTCTIILRGGAEQFMEETERSLHDAIMIVRRAIKNDSVVAGGGAIEMELSKYLRDYSRTIPGKQQLLIGAYAKALEIIPRQLCDNAGFDATNILNKLRARHAQGGMWYGVDINNENIADNFQAFVWEPAMVRINALTAASEAACLIVSVDETIKNPRSTVDPPAPSAGRGRGQARFH
notes: as for B1

binding result [6]: binds
B7: mouse CCTε subunit (other, UniProt P80316 2-541, looked up)
chain: ASVGTLAFDEYGRPFLIIKDQDRKSRLMGLEALKSHIMAAKAVANTMRTSLGPNGLDKMMVDKDGDVTITNDGATILSMMDVDHQIAKLMVELSKSQDDEIGDGTTGVVVLAGALLEEAEQLLDRGIHPIRIADGYEQAARIAIQHLDKISDKVLVDINNPEPLIQTAKTTLGSKVINSCHRQMAEIAVNAVLTVADMERRDVDFELIKVEGKVGGRLEDTKLIKGVIVDKDFSHPQMPKKVVDAKIAILTCPFEPPKPKTKHKLDVMSVEDYKALQKYEKEKFEEMIKQIKETGANLAICQWGFDDEANHLLLQNGLPAVRWVGGPEIELIAIATGGRIVPRFSELTSEKLGFAGVVQEISFGTTKDKMLVIEKCKNSRAVTIFIRGGNKMIIEEAKRSLHDALCVIRNLIRDNRVVYGGGAAEISCALAVSQEADKCPTLEQYAMRAFADALEVIPMALSENSGMNPIQTMTEVRARQVKESNPALGIDCLHKGSNDMQYQHVIETLIGKKQQISLATQMVRMILKIDDIRKPGESEE
notes: as for B1

The remaining lines, values behind:

Molecule: biotin-SGSG-AAAAAQGVMVGMGQK [peptide 8.6]
effect of alanine substitution in GRPRH core sequence on binding to CCT ([1]; free solution assay, derivatives of peptide 8): abrogation of binding to CCT

Molecule: biotin-SGSG-GRPRHQGVMVGMGQK [peptide 8]
binding of peptide to CCT in free solution (co-migration with CCT complex) ([1]; biotinylated peptide, non denaturing gel): co-migrate with the CCT complex

B2: Cyclin D2: cyclin D2, CCT binding partner (protein, UniProt P30279 1-289, looked up)
G1/S-specific cyclin-D2: MELLCHEVDPVRRAVRDRNLLRDDRVLQNLLTIEERYLPQCSYFKCVQKDIQPYMRRMVATWMLEVCEEQKCEEEVFPLAMNYLDRFLAGVPTPKSHLQLLGAVCMFLASKLKETSPLTAEKLCIYTDNSIKPQELLEWELVVLGKLKWNLAAVTPHDFIEHILRKLPQQREKLSLIRKHAQTFIALCATDFKFAMYPPSMIATGSVGAAICGLQQDEEVSSLTCDALTELLAKITNTDVDCLKACQEQIEAVLLNSLQQYRQDQRDGSKSEDELDQASTPTDVRDIDL
binding to CCT (binding partner) [3]: specific binding partners for CCT

B3: peptide 8.6, biotin-SGSG-AAAAAQGVMVGMGQK (peptide)
peptide: Biotin-SGSGAAAAAQGVMVGMGQK-NH2
SMILES: CSCC[C@H](NC(=O)CNC(=O)[C@@H](NC(=O)[C@H](CCSC)NC(=O)[C@@H](NC(=O)CNC(=O)[C@H](CCC(N)=O)NC(=O)[C@H](C)NC(=O)[C@H](C)NC(=O)[C@H](C)NC(=O)[C@H](C)NC(=O)[C@H](C)NC(=O)CNC(=O)[C@H](CO)NC(=O)CNC(=O)[C@H](CO)NC(=O)CCCC[C@@H]1SC[C@@H]2NC(=O)N[C@@H]21)C(C)C)C(C)C)C(=O)NCC(=O)N[C@@H](CCC(N)=O)C(=O)N[C@@H](CCCCN)C(N)=O
notes: All five core residues replaced by alanine
binding result [4]: no binding (tested: peptide 13.3 µM or 1.33 µM, CCT 70 nM)

B5: Cyclin D1: mouse cyclin D1 translated in rabbit reticulocyte lysate (protein)
chain: MEHQLLCCEVETIRRAYPDTNLLNDRVLRAMLKTEETCAPSVSYFKCVQKEIVPSMRKIVATWMLEVCEEQKCEEEVFPLAMNYLDRFLSLEPLKKSRLQLLGATCMFVASKMKETIPLTAEKLCIYTDNSIRPEELLQMELLLVNKLKWNLAAMTPHDFIEHFLSKMPEADENKQTIRKHAQTFVALCATDVKFISNPPSMVAAGSVVAAMQGLNLGSPNNFLSCYRTTHFLSRVIKCDPDCLRACQEQIEALLESSLRQAQQNVDPKATEEEGEVEEEAGLACTPTDVRDVDI
binding to CCT (binding partner) [3]: specific binding partners for CCT
